Laboratory results taken from publication PMC6018088.

Experiments:
[1] = target: T1, Fur (Vibrio cholerae O1 El Tor C7258?) (UniProt P0C6C8); experiment: DNase I footprinting; conditions: DNase I footprinting with FAM/HEX-labeled probes and RQ1 DNase I; buffer, salt, pH and temperature not given (cites earlier work)
T1 sequence: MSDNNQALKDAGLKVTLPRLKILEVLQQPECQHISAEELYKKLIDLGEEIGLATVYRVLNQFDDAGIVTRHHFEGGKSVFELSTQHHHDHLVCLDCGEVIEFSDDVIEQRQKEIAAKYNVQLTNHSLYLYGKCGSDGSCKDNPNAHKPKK

[2] = target: T2, HapR (Vibrio cholerae O1 El Tor C7258?) (UniProt Q4F6W7); experiment: DNase I footprinting; conditions: […]; buffer, pH and temperature not given ([…]
T2 sequence: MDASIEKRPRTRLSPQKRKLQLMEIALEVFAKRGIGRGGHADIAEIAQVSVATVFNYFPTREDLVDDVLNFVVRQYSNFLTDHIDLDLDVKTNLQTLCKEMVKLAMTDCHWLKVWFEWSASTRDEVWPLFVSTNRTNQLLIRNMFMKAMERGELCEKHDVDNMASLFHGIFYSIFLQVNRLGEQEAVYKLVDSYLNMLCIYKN

GTAAAACGACGGCCAGTCTTATGTGTAAGCGTATTGAAATCTTTAGAGTTAAAATGGAGAACTTAACTTTTTTTAAATTATTCAATTAATCTTTAAATCAACCTTATAAATTAATTCAGACTAAATTAGTTCAAATTAAATTAGGCTCATTAAATAATATGAATATCAGTAATTGTTATTTTAGGAAGAAATTATTTTACAGCAAATAAAAAGTCTTTAGAGGCTAAAATCTGTGATCCGGTCATAGCTGTTTCCTG (double strand) [hlyA promoter fragment]
binding [1]: binds
binding [2]: binds
